Data: patent US20200207859A1 (priority 2017, published 2020)

T1: CD74 (Homo sapiens, UniProt P04233)
T1 construct: endogenous in cells; host or cells: B-lymphoma, multiple myeloma and leukemia cell lines
T1 sequence (P04233 1-296): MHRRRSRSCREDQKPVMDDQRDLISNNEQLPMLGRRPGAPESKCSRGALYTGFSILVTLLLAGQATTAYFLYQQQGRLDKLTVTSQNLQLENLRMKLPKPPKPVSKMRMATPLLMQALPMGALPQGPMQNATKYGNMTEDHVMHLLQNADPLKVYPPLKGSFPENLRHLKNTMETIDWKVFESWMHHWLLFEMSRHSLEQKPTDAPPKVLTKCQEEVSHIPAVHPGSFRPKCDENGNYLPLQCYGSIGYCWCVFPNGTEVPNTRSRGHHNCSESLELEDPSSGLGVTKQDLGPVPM


Tests used:
ARD (MM) = test: Cell killing assay (cell proliferation, Cell Titer-Glo); type: cell-based, human; details: 72 hrs
Experimental: (§1) Cytotoxicity effects of the free drug linkers and conjugates were measured with a cell proliferation assay. A total of 12500 cells in a volume of 25 μl were seeded in a 384-well flat bottom white polystyrene plate on the day of assay. Free drug-linkers and conjugates were formulated at 2× starting concentration (1000 nM for free drug linkers and 100 nM for ADCs) in RPMI medium and filtered through MultiScreen HTS 96-Well Filter Plates (Millipore). Filter sterilized samples were serial diluted (1:3) under sterile conditions and added into treatment wells. Plates were cultured at 37° C. in a CO2 incubator for 72 hrs. For cell viability measurement, 30 μl of Cell Titer-Glo® reagent (Promega Corp.) was added into each well, and plates processed as per product instructions. Relative luminescence was measured on an ENVISION® plate reader (Perkin-Elmer; Waltham, Mass.). Relative luminescence readings were converted to % viability using untreated cells as controls. Data was fitted with non-linear regression analysis, using log(inhibitor) vs. response, variable slope, 4 parameter fit equation using GraphPad Prism. Data was expressed as % relative cell viability vs. dose of free drug-linker or conjugate in nM.

ARP-1 (MM) = test: as above; type: cell-based, human; details: 72 hrs
Experimental: as §1

SU-DHL-6 (NHL) = test: as above; type: cell-based, human; details: 72 hrs
Experimental: as §1

K562 (CML) = test: as above; type: cell-based; design: key to Cell Killing Activity Span: NK = no killing; NB = no binding; details: 72 hrs
Experimental: as §1

OPM-2 (MM) = test: as above; type: cell-based; design: key to Cell Killing Activity Span: NK = no killing; NB = no binding; details: 72 hrs
Experimental: as §1

RPMI-8226 (MM) = test: as above; type: cell-based; design: key to Cell Killing Activity Span: NK = no killing; NB = no binding; details: 72 hrs
Experimental: as §1

BDCM (AML) = test: as above; type: cell-based; details: 72 hrs
Experimental: as §1

JVM-13 (CLL) = test: as above; type: cell-based; details: 72 hrs
Experimental: as §1

RPMI-6666 (HL) = test: as above; type: cell-based; details: 72 hrs
Experimental: as §1

SUP-B15 (ALL) = test: as above; type: cell-based; details: 72 hrs
Experimental: as §1

CD74 [1] = target: T1, CD74; test: Cell binding assay (FACS), anti-CD74 antibody without conjugation
Experimental: (§2) Cell lines were maintained in RPMI, high glucose (Cellgro-Mediatech; Manassas, Va.) supplemented with 20% heat-inactivated fetal bovine serum (Hyclone; Thermo Scientific; Waltham, Mass.), 2 mM glutamax (Invitrogen; Carlsbad, Calif.) and 1× Pencillin/streptomycin (Cellgro-Mediatech; Manassas, Va.). Cells were harvested and re-suspended in FACS buffer (DPBS buffer supplemented with 1% bovine serum albumin). […] Cells were washed twice with ice-cold FACS buffer and incubated with 5 ug/ml Alexa 647 labeled donkey anti-human IgG antibody (Jackson Immune-Research) on ice for another 60 mins. Unstained cells and cells stained with secondary antibody alone were used as controls. Samples were then washed twice using FACS buffer and analyzed using a BD FACS Canto system. Mean fluorescence intensities were fitted using non-linear regression analysis with one site specific binding equation on GraphPad Prism. Data was expressed as geometric mean fluorescent intensity vs. antibody concentration in nM.

CD74 [2] = target: T1, CD74; test: as above; design: unit: geometric MFI
Experimental: as §2

CD74 [3] = target: T1, CD74; test: as above; design: key: NK = no killing; NB = no binding
Experimental: as §2

| Molecule | Cell Killing Activity Span (ARD (MM)) [%] | Cell Killing Activity Span (ARP-1 (MM)) [%] | Cell Killing Activity Span (SU-DHL-6 (NHL)) [%] | Cell Killing Activity Span (K562 (CML)) | Cell Killing Activity Span (OPM-2 (MM)) | Cell Killing Activity Span (RPMI-8226 (MM)) | Cell Killing Activity Span (BDCM (AML)) [%] | Cell Killing Activity Span (JVM-13 (CLL)) [%] | Cell Killing Activity Span (RPMI-6666 (HL)) [%] | Cell Killing Activity Span (SUP-B15 (ALL)) [%] | IC50 (ARD (MM)) [nM] | IC50 (ARP-1 (MM)) [nM] | IC50 (K562 (CML)) [nM] | IC50 (OPM-2 (MM)) [nM] | IC50 (RPMI-8226 (MM)) [nM] | IC50 (BDCM (AML)) [nM] | IC50 (JVM-13 (CLL)) [nM] | IC50 (SUP-B15 (ALL)) [nM] | also measured |
| --- | --- | --- | --- | --- | --- | --- | --- | --- | --- | --- | --- | --- | --- | --- | --- | --- | --- | --- | --- |
| COc1cc2cc(c1Cl)N(C)C(=O)C[C@H](OC(=O)[C@H](C)N(C)C(=O)CCCC(=O)N(C)CCOCCOCCOCCOCCC(=O)NCCC(=O)N1Cc3ccccc3C#Cc3ccccc31)[C@]1(C)O[C@H]1[C@H](C)[C@@H]1C[C@@](O)(NC(=O)O1)[C@H](OC)/C=C/C=C(/C)C2 [Free Linker-Drug, DBCO-PEG4-maytansine, reference compound] | 40 | 77 | 98 | NK | NK | NK | 76 | 65 | 85 | 65 |  |  |  |  |  |  |  |  |  |
| anti-CD74 (antibody, V domains shown, non-natural residues) VH: QVQLVESGGGVVQPGRSLRLSCAASGFNFSDYGMHWVRQAPGKGLEWVAVIWYDGSISYYADSVKGRFTISRDNSKNTLYLQMNSLRAEDTAVYYCARGGTVEHGAVYGTDVWGQGTTVTVSS VL: DIQMTQSPSSVSASVGDRVTITCRASQGIGSWLAWYQQKPGKAPKLLIYAADRLQSGVPSRFSGSGSGTDFTLTISSLQPEDFATYYCQQYHTYPLTFGGGTKVEIK |  |  |  |  |  |  |  |  |  |  |  |  |  |  |  |  |  |  | Kd (CD74 [1]; ARD (MM) cells): 2.6 nM; Kd (CD74 [1]; BDCM (AML) cells): 4.5 nM; Kd (CD74 [1]; JVM-13 (CLL) cells): 2.5 nM; Kd (CD74 [1]; RPMI-6666 (HL) cells): 2.3 nM; Kd (CD74 [1]; RPMI-8226 (MM) cells): 3.6 nM; Kd (CD74 [1]; SU-DHL-6 (NHL) cells): 2 nM; Kd (CD74 [1]; SUP-B15 (ALL) cells): 3.5 nM; Cell Binding Bmax (CD74 [2]; ARD (MM) cells): 190; Cell Binding Bmax (CD74 [2]; ARP-1 (MM) cells): 341; Cell Binding Bmax (CD74 [2]; BDCM (AML) cells): 3059; Cell Binding Bmax (CD74 [2]; JVM-13 (CLL) cells): 447; Cell Binding Bmax (CD74 [2]; RPMI-6666 (HL) cells): 3879; Cell Binding Bmax (CD74 [2]; RPMI-8226 (MM) cells): 119; Cell Binding Bmax (CD74 [2]; SU-DHL-6 (NHL) cells): 1565; Cell Binding Bmax (CD74 [2]; SUP-B15 (ALL) cells): 680; Cell Binding Bmax (CD74 [3]; K562 (CML) cells): NB; Cell Binding Bmax (CD74 [3]; OPM-2 (MM) cells): NB |
| Conjugate F: anti-CD74 IgG containing residue 30 conjugated to a PEG4-MMAE precursor (conjugate) VH: QVQLVESGGGVVQPGRSLRLSCAASGFNFSDYGMHWVRQAPGKGLEWVAVIWYDGSISYYADSVKGRFTISRDNSKNTLYLQMNSLRAEDTAVYYCARGGTVEHGAVYGTDVWGQGTTVTVSS VL: DIQMTQSPSSVSASVGDRVTITCRASQGIGSWLAWYQQKPGKAPKLLIYAADRLQSGVPSRFSGSGSGTDFTLTISSLQPEDFATYYCQQYHTYPLTFGGGTKVEIK | 73 | 93 | 97 | NK | NK | 31% | 94 | 59 | 82 | 65 | 16 | 4.2 | > 50 | > 50 | 20 | 1.4 | 5 | 3.7 |  |
| Conjugate C: anti-CD74 IgG containing residue 30 conjugated to a val-cit-PAB-hemiasterlin precursor (conjugate, non-natural residues) VH: QVQLVESGGGVVQPGRSLRLSCAASGFNFSDYGMHWVRQAPGKGLEWVAVIWYDGSISYYADSVKGRFTISRDNSKNTLYLQMNSLRAEDTAVYYCARGGTVEHGAVYGTDVWGQGTTVTVSS VL: DIQMTQSPSSVSASVGDRVTITCRASQGIGSWLAWYQQKPGKAPKLLIYAADRLQSGVPSRFSGSGSGTDFTLTISSLQPEDFATYYCQQYHTYPLTFGGGTKVEIK | 74 | 87 | 97 | NK | NK | 43% | 89 | 54 | 84 | 68 |  |  | > 50 | > 50 |  |  |  |  |  |
| Conjugate E: anti-CD74 IgG containing residue 30 conjugated to a PEG4-MMAF precursor (conjugate) VH: QVQLVESGGGVVQPGRSLRLSCAASGFNFSDYGMHWVRQAPGKGLEWVAVIWYDGSISYYADSVKGRFTISRDNSKNTLYLQMNSLRAEDTAVYYCARGGTVEHGAVYGTDVWGQGTTVTVSS VL: DIQMTQSPSSVSASVGDRVTITCRASQGIGSWLAWYQQKPGKAPKLLIYAADRLQSGVPSRFSGSGSGTDFTLTISSLQPEDFATYYCQQYHTYPLTFGGGTKVEIK | 20 | 71 | 98 | NK | NK | NK | 78 | 47 |  | 58 | 18 | 6 | > 50 | > 50 | > 50 | 3.3 | 7.8 | 2.5 | IC50 (SU-DHL-6 (NHL)): 0.5 nM |
